The results in this text go back to the RNAGym collection of RNA variant scans (doi:10.1073/pnas.2313332121).

B1: TPR t1 (parent)
chain: GACCAAUCUGCCCUCAGAGCUCGAGAACAUCUUCGGAUGCAGAGGAGGCAGGCUUCGGUGGCGCGAUAGCGCCAACGUCCUCAACCUCCAAUGCAUCCCACCACAUGAUGAUGCCUGAAGAGCCUUGGUUUUUUG

In this data set the parent is B1. Kind of data set: polymerase ribozyme fitness, log enrichment relative to wild type (log ratio); higher = more active; in vitro selection for triplet polymerase activity. The method in brief: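 Input and output libraries were sequenced on Illumina after a single in vitro selection round, run in triplicate on PCR-built, transcribed mutant libraries of each subunit of a heterodimeric triplet polymerase ribozyme. Selection annealed libraries to a biotinylated primer, the partner subunit and triplets, incubated them frozen at −7 °C, then gel-excised extended constructs for streptavidin-bead capture and RT-PCR. Genotypes with ≥10 input reads and ≥1 read per output were kept. Fitness is the logarithm, taken in base 2, of genotype enrichment divided by wild-type enrichment, using inverse-variance-weighted replicate averages.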
As for GACCAAUCUGCCCUCAGAGCUCGAGAACAUCUUCGGAGGCAGUGGAGUCAGGCUUCGGUGGCGCGAUAGCGCCAACGUCCUCAACCUGCAAUGCAUCCCACCACAUGAUGAUGCCUGAAGAGCCUUGGUUUUUUG, the “polymerase ribozyme fitness (log ratio)” value is -5.48. Then GACCAAUCUGCCCUCAGAGCUCGAGAACAUCUUCGGAUACAGAGGAGGCAGGCUUCGGUGGCGCGAUAGCGUCAACGCCCUCAACCUCCAAUGCAUCCUACCACAUGAUGAUGCCUGAAAAGCCUCGGUUUUUUG, with -2.95. With GACCAAUCUGCCCUCAGAGCUCGAGAACAUCUUCGGAGGCAGAGGAGGAAGGCCUCGGUGGCGCGAUAUCGCCAACGUCCUCAACCUCCAAUGCAUCCCACCAAAUGAUGAUGCCUGAAGAGCCUUGGUUUUUUG the figure was -0.856. As for GACCAAUCUGCCCUCAGAGCUCGAGAACAUCUUCGGAGGCAGAGGAGGCAGGCUUCGGUGGCGUGAUAGCGCCAACGUCGUCAACCUCCAAUGCAUCCCACCACAUGAUGAUGCCUGAAGAGCCUUGGUUCUUUG, the “polymerase ribozyme fitness (log ratio)” value is -6.8. With GACCAAUCUGCCCUCAGAGCUCGAGAACAUCUUCGGAUACAGAGGAGGCAGGCUUCGGUGGCGCGAUAGCGCCAACGUCAUCAACCUCCAAUGCAUCUCACCACAUGAUGAUGCCUGAAGAGCCUUGGUUUUAUG the figure was -6.34; with GACCAAUCUGCCCUCAGAGCUCGAGAACAUCUUCGGAUACAGAGGAGGCAGGCUUCGGUGGCGCGAUAGCGCCAACGUCCUCAACCUCCAAUGCAUCCCACCAAAUGAUGAUGCCUGAAGAGCCUUGGUUUUUUG, -2.08. In the case of GACCAAUCUGCCCUCAGAGCUCGAGAACAUCUUCGGAUACAGAGGAGGCAGGCUUCGGUGGCGCGAUAGCGCCAACGUCCUCAACCUCCAAUGCAUCCCACCAUAUGAUGAUGCCUGAAGAGCCUUGGUUUUUUG, the “polymerase ribozyme fitness (log ratio)” value was -0.931. On to GACCAAUCUGCCCUCAGAGCUCGAGAACAUCUUCGGAGGCAGAGGAGGCAGGCUUCGGUGGCGCGAUAGCGCCAACGUCCUUAACCUCCAAUGCAUCCCACCACAUGAUGAUGCCUGAAGAGCCUUGGUUUUUUG, for which the “polymerase ribozyme fitness (log ratio)” value is -0.857. As to GACCAAUCUGCCCUCAGAGCUCGAGAACAUCUUCGGAGGCAGAGGAGGCAGGCUUCGGUGGCGCGAUAGCGCCAACGUCCUCAACCUCCAAUGCAUCCCACCACAUGAUGAUGCGUGAAGAGCCUUGGUUUUUUG, the “polymerase ribozyme fitness (log ratio)” value was -3.06. Turning to GACCAAUCUGCCCUCAGAGCUCGAGAACAUCUUCGGAGGCAGAGGAGGCAGGCUUCGGUGUCGCGAUAGCGCCAACGUCCUCAACCUCCAAUGCAUCCCACCACAUGAUGAUGCCCGAAGAGCCUUGGUUUUUUG, the “polymerase ribozyme fitness (log ratio)” value was -1.78. Then GACCAAUCUGCCCUCAGAGCUCGAGAACAUCUUCGGAUACAGAGGAGGCAGGCUUCGGUGGUGCGAUAGCGCCAACGUCCUCAACCUCCAAUGCAUCCCACCACAUGAUGAUGCCUGAAGAGCCUUGGUUUUUUG, with -0.84; and GACCAAUCUGCCCUCAGAGCUCGAGAACAUCUUCGGAUACAGAGGAGGCAGGCUUCGGUGGGGCGAUAGCGCCAACGUCCUCAACCUCCAAUGCAUCCCACCACAUGAUGAUGCCUGAAGAGCCUUGGUUUUUUG, with -2.59. With GACCAAUCUGCCCUCAGAGCUCGAGAACAUCUUCGGAGGCAGAGGAGGCAGGCUUCGGUGGCGCGAUAGCGCCAACGUCCUCAACCUCCAAUGCAUCCCACCACAUGAUGAUGCCCGAAGAGCCUUGGUUUUUUG the figure was -2.06; with GACCAAUCUGCCCUCAGAGCUCGAGAACAUCUUCGGAGGCAGAGGAGGGAGGCUUCGGUGGCGCGAUAGCGCCAACGUCCUCAACCUCCAAUGCAUCCCACCACAUGAUGAUGCCUGAAGAGCCUUGGUUUUUUG, -2.14; with GACCAAUCUGCCCUCAGAGCUCGAGAACAUCUUCGGAUACAGAGGAGGCAGGCUUCGGUGGCGCGAUAGCGCCAACGUCCUCAACCUACAAUGCAUCCCACCACAUGAUGAUGCCUGAAGAGCCUUGGUUUUUUG, -1.32.

With GACCAAUCUGCCCUCAGAGCUCGAGAACAUCUUCGGAUACAGAGGAGGCAGGCUUCGGUGGCGCGAUAGCGCCAACGUCCUCAACCUCCAAUGCAUCCCACUACAUGAUGAUGCCUGGAGAGCCUUGGUUUUUUG, the “polymerase ribozyme fitness (log ratio)” value is -2.73. Then GACCAAUCUGCCCUCAGAGCUCGAGAACAUCUUCGGAGGCAGAGGUGGCAGGCUUCGGUGACGCGAUAGCGCCAACGUCCUCAACCACCAAUGCAUCCCACCACAUGAUGAUGCCUGAAGAGCCUUGGUUUUUUG, with -0.463.

Take GACCAAUCUGCCCUCAGAGCUCGAGAACAUCUUCGGAUACAGAGGUGGCAGGCUUCGGUGGCGCGAUAGCGCCAACGUCCUCAACCUCCAAUGCAUCCCACCACAUGAUGAUGCCUGAAGAGCCUUGGUUUUUUG: the “polymerase ribozyme fitness (log ratio)” value was -1.28. With GACCAAUCUGCCCUCAGAGCUCGAGAACAUCUUCGGAGGCAGAGGAGGCAGGCUUCGGUGGCGCGAUACCGCCAACGUCCUCAACCUCCAAUGCAUCCCACCACAUGAUGACGCCUGAAGAGCCUUGGUUUUUUG the figure was -1.03. Then GACCAAUCUGCCCUCAGAGCUCGAGAACAUCUUCGGAUACAGAGGAGGCAGGCUUCGGUGGCGCGCUAGCGCCAACGUCCUCAACGUCCAAUGCAUCCCACCACAUGAUGAUGCCUGAAGAGCCUUGGUUUUUUG, with -2.29.

Regarding GACCAAUCUGCCCUCAGAGCUCGAGAACAUCUUCGGAGGCAGUGGAGGCAGGCUUCGGUGGCGCGAUAGCGCCAACGUCCUCAACCCCCAAUGCAUCCCACCACAUGAUGAUGCCUGAAGAGCCUUGGUUUUUUG, the “polymerase ribozyme fitness (log ratio)” value is -2.42. Then GACCAAUCUGCCCUCAGAGCUCGAGAACAUCUUCGGAUACAGAGGAGGCAGGCUUCGGUGGCGCGAUAGCGCAAACGUCCUCAACCUCCAAUUCAUCCCACCACAUGAUGAUGCCUGAAGAGCCUUGGUUUUUUG, with -2.29. Then GACCAAUCUGCCCUCAGAGCUCGAGAACAUCUUCGGAUACAGAGGAGGAAGGCUUCGGUGGCGCGAUAGCGCCAACGUCCUCAACCUCCAAUGCAUCCCACCACAUGAUGAUGCCUGAAGAGCCUUGGUUUUUUG, with -0.508; and GACCAAUCUGCCCUCAGAGCUCGAGAACAUCUUCGGAUACAGAGGAGGCAGGCUUCGGUGGCGCGAUAGCGCUAACGUCCUCAACCUCCAAUGCAUCCCACCACAAGACGAUACCUAAAGAGCCUUGGUUUUUUG, with -5.45. Then GACCAAUCUGCCCUCAGAGCUCGAGAACAUCUUCGGAUACAGAGGAGGCAGGCUUUGGUGGCGCGAUAGCGCCAACGUCCUCAACCUCCAAUGCAUCCCACCACAUGAUGAUGCCUGAAGAGCCUUGGUUUUUUG, with -0.755; and GACCAAUCUGCCCUCAGAGCUCGAGAACAUCUUCGGAUACAGAGGAGGCAGGCUUCGGUGGCGCGAUAGCGCCAACGUCCUCAACCUCCAAUGCAUCCCACCACAUGAUGCUGCCUGAAGAGCCUUGGUUUUUUG, with -0.291. With GACCAAUCUGCCCUCAGAGCUCGAGAACAUCUUCGGAUACAGAGGAGGCAGGCUUCGGUGGCGCGAUAGCGCCAACGUCCUCAACCUCCAAUGCAUCCCACCACAUGAUGAUGCCUGAAGAGCUUUGGUUUUUUG, the “polymerase ribozyme fitness (log ratio)” value stood at 1.26.

For the variant GACCAAUCUGCCCUCAGAGCUCGAGAACAUCUUCGGAGGCAGAGGAGGCAGGCUUCGGUGGCGCGAUAUCGCCAACGUCCUCAACCUCCAAUGCAUCCCACCACAUGAUGAUGCCUGAAGAGCCUUGGUUUUUUG, the “polymerase ribozyme fitness (log ratio)” value was -0.236. Then GACCAAUCUGCCCUCAGAGCUCGAGAACAUCUUCGGAUACAGAGGAGGGAGGCUUCGGUGGGGCGAUAGCGCCAACGUCCUCAACCUCCCAUGCAUCCCACCACAUGAUGAUACCUGAAGAGCCUUGGUUUUUUG, with -6.39; and GACCAAUCUGCCCUCAGAGCUCGAGAACAUCUUCGGAGGCAGAGGAGGCAGGCUUCGGUGGCGUGCUAGCGCCAACGUCCUCAACCUCCUCUGCAUCCCACCACAUGAUGAUGCCUGAAGAGCCUUGGUUUUUUG, with -5.32. With GACCAAUCUGCCCUCAGAGCUCGAGAACAUCUUCGGAUACAGAGGUGGCAGGCUUCGGUGGCGCGAUAGCGCCAACGUCCUCAACCUCCAAUGCAUCCCACCACAAGAUGAUGCCUGAAGAGCCUUGGUUUUUUG the figure was -2.02; with GACCAAUCUGCCCUCAGAGCUCGAGAACAUCUUCGGAUACAGAGGAGGCAGGCUUCGGUGGCGUGAUAGCGCCAACGUCCUCAACCUCCGAUGCAUCCCACCACAUGAUGAUGCCUGAAGAGCCUUGGUUUUUUU, -1.27; with GACCAAUCUGCCCUCAGAGCUCGAGAACAUCUUCGGAGGCAGAGGAGGCAGGCUUCGGUGGCGCGAUAGCGCCAACGUCCUCAACCUCAAAUGCAACCCACCACAUGAUGAUGGCUGAAGAGCCUUGGUUUUUUG, -5.44.

With GACCAAUCUGCCCUCAGAGCUCGAGAACAUCUUCGGAUACAGUGGAGGCAGGCUUCGGUGGCGCGAUAGCGUGAACGUCCUCAACCUCCAAUGCAUCCCACCACAUGAUGAUGCGUGAAGAGCCUCGGUUUUUUG, the “polymerase ribozyme fitness (log ratio)” value was -5.51. Then GACCAAUCUGCCCUCAGAGCUCGAGAACAUCUUCGGAGGCAGAGGAGGCAGGCGUCGGUGGCGUGAUAGCGCCAACGUCCUCAACCUCCAAUGCAUCCCACCACAUGAUGAUGCCUGAAGAGCCUUGGUUUUUUG, with -4.46; and GACCAAUCUGCCCUCAGAGCUCGAGAACAUCUUCGGAUACAGAGGAGGCAGGCUUCGGUGGCGCGAUAGCGCCAACGUCCUCAACCUCCAAUGUAUCCCACCACAUGAUGAUGCCUGAAGAGCCUUGGUUUUUUG, with -0.565. Then GACCAAUCUGCCCUCAGAGCUCGAGAACAUCUUCGGAUACAGAGGAGGAAGGCUUCGGUGGCGCGAUAGCGCCAACGUCCUCAACCUCCAAUGCAUCACACCACAUGAUGACGCCUGAAGAGCCUUGGUUUUUUG, with -3.94; and GACCAAUCUGCCCUCAGAGCUCGAGAACAUCUUCGGAGGCAGAGGAGGCAGGCUUCGGUGGCGCGAUAGCGCCAACGUCCUCAACCUCCAAUGCAUCCCACCACAUGAUGAUGCCUGAAGAGCCUUGCUUUUUUG, with -2.66. Then GACCAAUCUGCCCUCAGAGCUCGAGAACAUCUUCGGAGGCAGAGGAGGCAGGCUUCGGUGGCGCGAUAGCGUCAACGUCCUCAACCUCCAAUGCAUCCCACCAUAUGAUGAUGCCUGAAGAGCCUUGGUUUUUUG, with -1.14; and GACCAAUCUGCCCUCAGAGCUCGAGAACAUCUUCGGAUACAGAGGAGGCAGGCUUCGGUGGCGCGAUAGCGCCAACGUCCUCUACCUCCAAUGCAUCCCACCACAAGAUGAUGUCUGAAGAGCCUUGGUUUUUUG, with -4.87. Take GACCAAUCUGCCCUCAGAGCUCGAGAACAUCUUCGGAUACAGAGGUGGCAGGCUUCGGUGGCGCGAUAGCGCCAACGACCUCAACCUCCAAUGCAUCCCACCACAUGAUGAUGCCUGAAGAGCCUCGGUUUUUUG: the “polymerase ribozyme fitness (log ratio)” value was -3.53. Then GACCAAUCUGCCCUCAGAGCUCGAGAACAUCUUCGGAUACAGAGGAGGCAGGCUUCGGUGGCGCGAUAGCGCCAACGUCCUCAACCUCCAAUGCAUCCCACCACAUGAUGAUGCCUGAAGAGACUUGGUUUUUUG, with -0.277.
